In patent publication US20140120557A1:
Each block holds one substance with its values, some of them ahead of it.

What was measured:
[1] = target: 5C.C7 TCR (as measured by surface plasmon resonance) (mouse); assay: SPR
[2] = target: 5C.C7 TCR on 5C.C7 T cell blasts (mouse) (UniProt A2KF29); assay: flow cytometry; 2 µM BioMCC(ASA)-I-Ek photocrosslinked to 5C.C7 T cell blasts, against about 38,000 TCRs per T cell
[3] = target: 5C.C7 TCR on 5C.C7 T cell blasts (mouse) (UniProt A2KF29); assay: cell-based or functional assay
[4] = target: 5C.C7 TCR on 5C.C7 T cell blasts (mouse) (UniProt A2KF29); assay: flow cytometry; 5C.C7 T cell blasts, one hour at room temperature after staining
[5] = target: OT-1 TCR on naïve OT-1 T cells (mouse); assay: flow cytometry; naïve OT-1 T cells, pMHC 1 µM, UV photocrosslinking, PE-SAv

Sequence of 102S-I-Ek (P04224 26-216): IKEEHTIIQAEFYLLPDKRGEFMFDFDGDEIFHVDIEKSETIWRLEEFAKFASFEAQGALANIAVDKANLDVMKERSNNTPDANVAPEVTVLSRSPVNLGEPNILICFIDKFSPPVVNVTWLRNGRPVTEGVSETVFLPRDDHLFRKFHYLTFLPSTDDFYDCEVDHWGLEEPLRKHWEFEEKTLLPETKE
Sequence of MCC(Cy5)-I-Ek (P04224 26-216): as above
Sequence of PE-conjugated MCC-I-Ek tetramer (P04224 26-216): as above
Sequence of OVA(ASA)-Kb (P01901 22-305): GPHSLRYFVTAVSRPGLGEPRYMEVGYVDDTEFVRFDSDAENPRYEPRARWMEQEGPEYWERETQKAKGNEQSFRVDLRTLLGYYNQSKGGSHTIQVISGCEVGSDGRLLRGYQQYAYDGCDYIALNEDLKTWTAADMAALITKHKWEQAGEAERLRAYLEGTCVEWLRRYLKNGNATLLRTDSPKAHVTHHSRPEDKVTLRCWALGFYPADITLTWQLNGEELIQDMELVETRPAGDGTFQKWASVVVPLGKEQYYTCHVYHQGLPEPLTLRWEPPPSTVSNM

Substance: 102S-I-Ek (from UniProt P04224 26-216) (peptide-MHC)
- Kd [1]: 206 µM
- t1/2 [1]: 0.83 s

Substance: PE-conjugated MCC-I-Ek tetramer (from UniProt P04224 26-216) (peptide-MHC)
- decrease of the staining signal after one hour at room temperature [4]: 50%

The remaining lines, values ahead:

- percent of the total TCRs on a T cell surface permanently bound [2]: 16%
- duration of calcium flux on planar lipid bilayer with ICAM-1 and B7-1 [3]: > 10 min
- duration of calcium flux on planar lipid bilayer without ICAM-1 and B7-1 [3]: 3 min
- peak of fura-2 excitation ratio (340 nm/380 nm) above the baseline; 5100 or 7900 photocrosslinked pMHCs per cell [3]: 2.5 fold
- decrease of the staining signal after one hour at room temperature [4]: 5%
Substance: BioMCC(ASA)-I-Ek (from UniProt P04224 26-216) (peptide-MHC)

- peak of fura-2 excitation ratio (340 nm/380 nm) above the baseline; 6100 standard agonist pMHCs per cell [3]: 2.5 fold
Substance: MCC(Cy5)-I-Ek (from UniProt P04224 26-216) (peptide-MHC)

- fold efficiency of staining against the null SIAAFASL(ASA)-Kb monomer [5]: > 10 fold
Substance: OVA(ASA)-Kb (from UniProt P01901 22-305) (peptide-MHC)
